Reference: US20240190943A1 (HANGZHOU EXEGENESIS BIO, published 2024)
One block for each binder: values may come before it.

Columns and labels:
angiopoietin 2 = biological target: T1, angiopoietin 2 (UniProt O15123 19-496, limits assumed); assay: Ang2 ELISA, shown relative to Exg102-04; middle bar of each group
T1 construct: also called Ang2; ANGPT2
T1 sequence (looked up): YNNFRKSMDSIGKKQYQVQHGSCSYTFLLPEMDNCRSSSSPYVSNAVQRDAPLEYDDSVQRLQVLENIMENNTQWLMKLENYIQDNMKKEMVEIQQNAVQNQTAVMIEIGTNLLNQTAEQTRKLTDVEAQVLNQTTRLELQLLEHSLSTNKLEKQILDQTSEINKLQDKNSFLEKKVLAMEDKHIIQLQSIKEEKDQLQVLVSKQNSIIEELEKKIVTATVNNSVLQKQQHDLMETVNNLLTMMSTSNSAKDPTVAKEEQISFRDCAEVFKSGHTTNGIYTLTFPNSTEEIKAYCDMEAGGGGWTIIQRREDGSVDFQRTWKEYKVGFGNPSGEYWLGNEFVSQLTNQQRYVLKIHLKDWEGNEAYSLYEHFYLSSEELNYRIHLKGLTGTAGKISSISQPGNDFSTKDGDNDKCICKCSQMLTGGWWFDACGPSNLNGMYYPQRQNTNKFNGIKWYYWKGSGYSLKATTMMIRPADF

VEGF-A = biological target: T2, VEGF-A (UniProt P15692-4 27-191, limits assumed); assay: VEGF-A binding ELISA (OD450), titration in pM of the product of plasmid-transfected cells
T2 construct: also called rVEGF; vascular endothelial growth factor
T2 sequence (P15692 other isoform, or with tags, fused parts or gaps limits assumed): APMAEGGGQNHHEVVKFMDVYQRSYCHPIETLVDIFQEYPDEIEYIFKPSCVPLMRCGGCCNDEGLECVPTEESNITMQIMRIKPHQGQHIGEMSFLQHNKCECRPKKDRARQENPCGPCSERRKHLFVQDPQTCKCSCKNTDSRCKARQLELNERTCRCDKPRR

binding result (angiopoietin 2): no binding
B1: Exg102-13 (other)
fusion polypeptide (Flt1 signal - VEGFR1 D2 - VEGFR2 D3 - Fc-Hinge - Ang BD): SDTGRPFVEMYSEIPEIIHMTEGRELVIPCRVTSPNITVTLKKFPLDTLIPDGKRIIWDSRKGFIISNATYKEIGLLTCEATVNGHLYKTNYLTHRQTNTIIDVVLSPSHGIELSVGEKLVLNCTARTELNVGIDFNWEYPSSKHQHKKLVNRDLKTQSGSEMKKFLSTLTIDGVTRSDQGLYTCAASSGLMTKKNSTFVRVHEKDKTHTCPPCPAPELLGGPSVGGGGGSGGGGGAQQEECEWDPWTCEHMGSGSATGGSGSTASSGSGSATHQEECEWDPWTCEHMLE
notes: Carries only the N-terminal 21 amino acids of the Fc (Fc-Hinger) and no full Fc; also called Exemplary polypeptide 4

binding result (angiopoietin 2): no binding | EC50 (read off the curve) (VEGF-A): ~0.3 nM
B2: control polypeptide without an Ang BD (Fc fusion)
chain: SDTGRPFVEMYSEIPEIIHMTEGRELVIPCRVTSPNITVTLKKFPLDTLIPDGKRIIWDSRKGFIISNATYKEIGLLTCEATVNGHLYKTNYLTHRQTNTIIDVVLSPSHGIELSVGEKLVLNCTARTELNVGIDFNWEYPSSKHQHKKLVNRDLKTQSGSEMKKFLSTLTIDGVTRSDQGLYTCAASSGLMTKKNSTFVRVHE
notes: Signal peptide left out; also called EXG102-02; EXG102-03-1; not shown: Fc fragment of human IgG
